Results on four molecules are retold here after publication PMC1636354 (Nucleic Acids Research, 2006).

Holding throughout (assay): pull-down
For series [1], the target named is T1, human Rad54B protein (untagged, purified) (human, UniProt Q9Y620 1-910).
T1 sequence: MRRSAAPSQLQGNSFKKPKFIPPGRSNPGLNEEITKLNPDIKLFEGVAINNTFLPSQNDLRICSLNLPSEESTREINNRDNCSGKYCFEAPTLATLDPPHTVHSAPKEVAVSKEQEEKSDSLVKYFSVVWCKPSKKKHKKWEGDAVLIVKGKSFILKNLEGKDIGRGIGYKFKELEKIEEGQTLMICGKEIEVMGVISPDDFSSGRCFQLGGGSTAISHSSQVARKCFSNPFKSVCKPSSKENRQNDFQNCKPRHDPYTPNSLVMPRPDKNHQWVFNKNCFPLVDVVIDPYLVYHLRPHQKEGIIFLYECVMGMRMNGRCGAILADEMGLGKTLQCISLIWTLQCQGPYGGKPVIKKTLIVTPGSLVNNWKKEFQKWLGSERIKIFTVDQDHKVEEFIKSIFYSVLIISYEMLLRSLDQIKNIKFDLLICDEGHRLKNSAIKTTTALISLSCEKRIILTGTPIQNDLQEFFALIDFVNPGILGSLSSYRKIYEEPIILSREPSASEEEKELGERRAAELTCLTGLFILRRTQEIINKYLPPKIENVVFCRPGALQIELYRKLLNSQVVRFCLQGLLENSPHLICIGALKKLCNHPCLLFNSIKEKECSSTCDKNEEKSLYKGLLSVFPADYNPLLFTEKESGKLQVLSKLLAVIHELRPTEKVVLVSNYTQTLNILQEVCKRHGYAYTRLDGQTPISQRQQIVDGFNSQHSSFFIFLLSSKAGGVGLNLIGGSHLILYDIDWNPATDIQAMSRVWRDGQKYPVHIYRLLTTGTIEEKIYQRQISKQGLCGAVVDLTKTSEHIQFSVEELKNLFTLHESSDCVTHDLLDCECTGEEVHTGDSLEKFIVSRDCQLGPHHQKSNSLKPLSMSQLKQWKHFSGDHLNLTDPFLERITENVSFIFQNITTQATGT

A further series concerns the target T2, Dmc1 (human, UniProt Q14565 1-340).
T2 sequence: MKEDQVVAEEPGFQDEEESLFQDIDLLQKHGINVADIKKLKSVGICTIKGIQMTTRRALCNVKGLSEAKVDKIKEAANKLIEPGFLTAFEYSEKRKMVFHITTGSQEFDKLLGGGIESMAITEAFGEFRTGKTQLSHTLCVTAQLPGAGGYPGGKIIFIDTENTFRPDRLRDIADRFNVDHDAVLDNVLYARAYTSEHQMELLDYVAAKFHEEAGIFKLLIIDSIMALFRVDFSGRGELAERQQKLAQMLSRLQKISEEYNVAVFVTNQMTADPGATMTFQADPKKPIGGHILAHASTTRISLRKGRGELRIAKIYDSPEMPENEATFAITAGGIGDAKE

The series “pull-down” concerns the molecule itself.

B1: human Rad51 protein (natural protein)
chain: MAMQMQLEANADTSVEEESFGPQPISRLEQCGINANDVKKLEEAGFHTVEAVAYAPKKELINIKGISEAKADKILAEAAKLVPMGFTTATEFHQRRSEIIQITTGSKELDKLLQGGIETGSITEMFGEFRTGKTQICHTLAVTCQLPIDRGGGEGKAMYIDTEGTFRPERLLAVAERYGLSGSDVLDNVAYARAFNTDHQTQLLYQASAMMVESRYALLIVDSATALYRTDYSGRGELSARQMHLARFLRMLLRLADEFGVAVVITNQVVAQVDGAAMFAADPKKPIGGNIIAHASTTRLYLRKGRGETRICKIYDSPCLPEAEAMFAINADGVGDAKD
As to B1, the binding result in series [1] is given as “binds”.

B2: SAT-120 (ssDNA)
DNA: ATTTCTTCATTTCATGCTAGACAGAAGAATTCTCAGTAACTTCTTTGTGCTGTGTGTATTCAACTCACAGAGTGGAACGTCCCTTTGCACAGAGCAGATTTGAAACACTCTTTTTGTAGT
For B2, in the series with Dmc1, the binding result was “binds”.

B3: Dmc1 mutant lacking 81 amino acid residues from the N-terminus (Dmc1 82-340) (domain or fragment)
chain: EPGFLTAFEYSEKRKMVFHITTGSQEFDKLLGGGIESMAITEAFGEFRTGKTQLSHTLCVTAQLPGAGGYPGGKIIFIDTENTFRPDRLRDIADRFNVDHDAVLDNVLYARAYTSEHQMELLDYVAAKFHEEAGIFKLLIIDSIMALFRVDFSGRGELAERQQKLAQMLSRLQKISEEYNVAVFVTNQMTADPGATMTFQADPKKPIGGHILAHASTTRISLRKGRGELRIAKIYDSPEMPENEATFAITAGGIGDAKE
Take B3: the binding result (in the series “pull-down”; in series [1]) was “binds” in each case.

B4: human Dmc1 protein (purified) (natural protein)
chain: MKEDQVVAEEPGFQDEEESLFQDIDLLQKHGINVADIKKLKSVGICTIKGIQMTTRRALCNVKGLSEAKVDKIKEAANKLIEPGFLTAFEYSEKRKMVFHITTGSQEFDKLLGGGIESMAITEAFGEFRTGKTQLSHTLCVTAQLPGAGGYPGGKIIFIDTENTFRPDRLRDIADRFNVDHDAVLDNVLYARAYTSEHQMELLDYVAAKFHEEAGIFKLLIIDSIMALFRVDFSGRGELAERQQKLAQMLSRLQKISEEYNVAVFVTNQMTADPGATMTFQADPKKPIGGHILAHASTTRISLRKGRGELRIAKIYDSPEMPENEATFAITAGGIGDAKE
As to B4, the binding result (in the series “pull-down”; in series [1]) was “binds” in each case.
